Patent publication US20180117171A1, “IMMUNOCONJUGATES FOR PROGRAMMING OR REPROGRAMMING OF CELLS” (President and Fellows of Harvard College, priority 2015, published 2018)

How the values were obtained:
[1] = system: antigen specific Th17 T cells; assay: Th17 ELISpot of splenocytes challenged with MOG; assay type: in vivo; details: splenocytes of treated mice with EAE induced, MOG challenge
Excerpt: To further explore the mechanism for tolerance induction in EAE animals treated with bolus immunoconjugate, T cell analyses (ELISpot and passive EAE assays) were completed in mice that received the immunoconjugate or control therapies (FIG. 36A-C). Splenocytes from mice treated with MOG alone or Dex-MOG with EAE induced were challenged with MOG to quantitate antigen specific elaboration of IL-17.

[2] = system: CD8+ T cells from OT-I mice; assay: OT-I: DC co-culture, CFSE T cell proliferation; assay type: cell-based, mouse; details: dexamethasone-SIINFEKL 1.0 μM; ovalbumin 0.2 μM
Experimental: Cytotoxic T-lymphocytes (CTLs) were purified using magnetic beads (Miltenyi Biotec) from the spleens of the T cell receptor (TCR) transgenic OT-I mice (Jackson Laboratories) following the manufacturer's protocol. OT-I mice express a transgenic T cell receptor that recognizes ovalbumin residues 257-264 in the context of H2Kb. The CTLs were cultured with a 1:1 ratio with BMDC for 3 days at 37° C. in R10 media. […] The cells were washed two times before culturing with the T cells. Dexamethasone-TRP-2 was made following the same solid phase method as described above (Peptide synthesizer: CS Bio, DIPEA, Piperidine, TFA, and NMP: Advanced ChemTech, DCM: Sigma, amino acids and resin: Peptides International, dexamethasone hemisuccinate: Steraloids). Three days later, the cells were harvested and analyzed by flow cytometry using the BD LSR II Fortessa. The plots for flow cytometry were obtained using FCS Express.
Carboxyfluorescein succinimidyl ester (CFSE) labeled CD8+ T cells from TCR transgenic OT-I mice were cultured with BMDC for 3 days. […] Three days later, the cells were analyzed by flow cytometry.

[3] = system: bone marrow derived dendritic cells (BMDC); assay: BMDC presentation of […] from CpG-OVA conjugate (flow cytometry); assay type: cell-based; details: 18 hours; compared to unconjugated CpG and OVA
Experimental: CpG-OVA conjugate was cultured with bone marrow derived dendritic cells (BMDC) in vitro for 18 hours. BMDC presentation of […] was analyzed using flow cytometry and percentage of CD11c+ DCs presenting the […] peptide on the MHC-I molecule was quantified.

[4] = release of conjugate from the MPS scaffold; assay type: physicochemical
Experimental: FIG. 48 is a line graph showing the evaluation of the release kinetics of the GnRH-OVA conjugate from the MPS scaffold. The conjugate was loaded into the MPS scaffold for 8 hours at room temperature (RT).
C57bl/6J mice were immunized with MPS scaffold containing 1 ug GM-CSF and 100 ug OVA, 1 ug GM-CSF, 100 ug CpG and 100 ug OVA (MPS vaccine) or 1 ug GM-CSF and 100 ug OVA conjugated to 100 ug CpG (MPS conjugate vaccine). After 7 days, peripheral blood was analyzed using […] tetramer and the percentage of […] specific T cells within CD3+CD8+ T cells was quantified. MPS conjugate vaccine increased the presence of […] specific CD8+ T cells by 2 fold compared with the MPS vaccine (FIG. 40, bottom).

MEVGWYRSPFSRVVHLYRNGK [MOG alone, myelin oligodendrocyte glycoprotein residues 35-55, reference compound]
IL-17 spot forming cells [1]: 230±10 spot forming cells per million

B1: ovalbumin: model antigen protein (protein, UniProt P01012 2-386, looked up)
Ovalbumin: GSIGAASMEFCFDVFKELKVHHANENIFYCPIAIMSALAMVYLGAKDSTRTQINKVVRFDKLPGFGDSIEAQCGTSVNVHSSLRDILNQITKPNDVYSFSLASRLYAEERYPILPEYLQCVKELYRGGLEPINFQTAADQARELINSWVESQTNGIIRNVLQPSSVDSQTAMVLVNAIVFKGLWEKAFKDEDTQAMPFRVTEQESKPVQMMYQIGLFRVASMASEKMKILELPFASGTMSMLVLLPDEVSGLEQLESIINFEKLTEWTSSNVMEERKIKVYLPRMKMEEKYNLTSVLMAMGITDVFSSSANLSGISSAESLKISQAVHAAHAEINEAGREVVGSAEAGVDAASVSEEFRADHPFLFCIKHIATNAVLFFGRCVSP
OT-I T cell proliferation, BMDC pretreated with antigen [2]: initiated a stronger proliferative response

B2: CpG-OVA conjugate: OVA protein linked through maleimide to reduced thiol-CpG (conjugate, UniProt P01012 2-386, looked up)
Ovalbumin: GSIGAASMEFCFDVFKELKVHHANENIFYCPIAIMSALAMVYLGAKDSTRTQINKVVRFDKLPGFGDSIEAQCGTSVNVHSSLRDILNQITKPNDVYSFSLASRLYAEERYPILPEYLQCVKELYRGGLEPINFQTAADQARELINSWVESQTNGIIRNVLQPSSVDSQTAMVLVNAIVFKGLWEKAFKDEDTQAMPFRVTEQESKPVQMMYQIGLFRVASMASEKMKILELPFASGTMSMLVLLPDEVSGLEQLESIINFEKLTEWTSSNVMEERKIKVYLPRMKMEEKYNLTSVLMAMGITDVFSSSANLSGISSAESLKISQAVHAAHAEINEAGREVVGSAEAGVDAASVSEEFRADHPFLFCIKHIATNAVLFFGRCVSP
modifications: CpG oligonucleotide via maleimide linker
CD11c+ DCs presenting SIINFEKL on MHC-I [3]: enhanced presentation
release from the MPS scaffold [4]: released in a sustained manner followed by a burst release
